Values of other authors as cited in publication PMC11901361.

Target: folate receptor alpha (Homo sapiens) (UniProt P15328)
Sequence (P15328 25-234): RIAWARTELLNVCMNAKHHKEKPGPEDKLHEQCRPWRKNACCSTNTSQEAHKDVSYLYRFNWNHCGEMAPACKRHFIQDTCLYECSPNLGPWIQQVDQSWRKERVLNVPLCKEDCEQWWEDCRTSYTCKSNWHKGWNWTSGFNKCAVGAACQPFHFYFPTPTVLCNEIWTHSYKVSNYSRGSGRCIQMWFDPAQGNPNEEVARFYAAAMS

Kd: 2 µM
Substance: farletuzumab
